Measurements reported in patent publication US5840683A, “Peptides inhibiting the oncogenic action of p21 ras” (Innapharma, Inc., dated 1998).

T1: human oncogenic ras p21 (human)
T1 chain: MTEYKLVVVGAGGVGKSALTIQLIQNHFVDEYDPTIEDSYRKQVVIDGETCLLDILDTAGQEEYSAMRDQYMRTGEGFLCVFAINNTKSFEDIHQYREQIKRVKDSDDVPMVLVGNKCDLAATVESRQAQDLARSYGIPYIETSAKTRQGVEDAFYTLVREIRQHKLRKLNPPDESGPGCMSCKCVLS

B1: peptide of SEQ ID NO:2, Lys-Cys-Asp-Leu-Ala (peptide)
peptide: KCDLA
B2: peptide of SEQ ID NO:7, Tyr-Arg-Glu-Gln-Ile-Lys-Arg-Val-Lys-Asp-Ser-Asp-Asp-Val-Pro (peptide)
peptide: YREQIKRVKDSDDVP
B3: peptide of SEQ ID NO:8, Gly-Asn-Lys-Cys-Asp-Leu-Ala-Ala-Arg-Thr-Val-Glu (peptide)
peptide: GNKCDLAARTVE
B4: peptide of SEQ ID NO:6, Thr-Ile-Glu-Asp-Ser-Tyr-Arg-Lys-Gln-Val-Val-Ile-Asp (peptide)
peptide: TIEDSYRKQVVID
B5: peptide of SEQ ID NO:1, Ile-Lys-Arg-Val-Lys-Asp (peptide)
peptide: IKRVKD
B6: Lys-Arg-Val (peptide)
peptide: KRV
B7: peptide of SEQ ID NO:4, Asp-Leu-Ala-Ala (peptide)
peptide: DLAA
B8: peptide of SEQ ID NO:9, Cys-Asp-Leu-Ala-Ala-Arg-Thr (peptide)
peptide: CDLAART
B9: Val-Val-Ile (peptide)
peptide: VVI

Target: T1, human oncogenic ras p21
Test: cell-based or functional assay
Conditions: not given

Present Inhibition of ras-Induced Maturation | Molecule
38% | B1
56% | B2
92% | B3
28% | B4
76% | B5
22% | B6
22% | B7
65% | B8
34% | B9

Tested on: oncogenic ras-p-21
Test: not given
Conditions: background statement; cited from earlier work

Molecule | inhibition of oncogenic ras-p-21
N[C@@H](Cc1ccc(O)cn1)C(=O)O [Azatyrosine] | strongly inhibits
